# Measured values published in the DeepSol protein solubility set.
# Test: soluble on expression in E. coli; label from the status in PepcDB or PDB records
row,Sequence,soluble on expression in E. coli
1,MSLSKRSIPNVDWANQLENAIRQFVKEKLELIMREEIKNFLEIEQAGTPNMRNGYYQRNLDTQYGRIEGLLVPRDRNGEFQTQLFAPYQRHTGWLEEAIIRMYQSGMSTREIGKFIERILGSTYSPATISRITDVVKEDIEKWHARPLHQRYSVLYLDGLYVKLRRDTVEKEVIYVVLGVNEEGYREILDFFVGGQESAYVWQEILQQLYKRGVKEVLLGVFDGLPGLEEAFKAVYPKADVQRCVVHKVRNTLSRVRKKDQFEMAEDLKLIYRSPNKEIALEMFQQFQSKWSHKYPREVQSWANELDVLLTFMDYPSSIRSVIYTTNAIERTIKEIRKRLKPMNSLSSLEAAEKVVYLTIQDFNEKWAGRKLRGFAEAQEALQRMFEEREGHHHHHH,not soluble
2,MHSGDFMSVSTPTRDDFAALLEESFASNDLAEGYVAKGIVTAIEKDVAIVDVGLKVEGRVPLKEFGAKSKDGTLKVGDEVEVYVERIENALGEAVLSREKARREESWVKLEAKFEAGERVEGVIFNQVKGGFTVDLDGAVAFLPRSQVDIRPIRDVTPLMHNPQPFEILKMDKRRGNIVVSRRTVLEESRAEQRSEIVQNLEEGQVVDGVVKNITDYGAFVDLGGIDGLLHVTDMAWRRVNHPSEILNIGQQVKVQIIRINQETHRISLGMKQLESDPWDGISAKYPVGKKISGTVTNITDYGAFVELEPGIEGLIHISEMSWTKKNVHPGKILSTSQEVDVVVLEVDPSKRRISLGLKQTLENPWQAFAFSHPAGTEVEGEVKNKTEFGLFIGLEGDVDGMVHLSDLDWNRPGEQVIEEFNKGDVVKAVVLDVDVEKERISLGIKQLGKDAVGEAATSGDLRKNAVVSCEVIAVNDGGVEVKLVNHEDITSFIRRNDLARDRDDQRPERFAVGQVFDARVVNFSKKDRKVMLSIKALEIAEEKEAVAQFGSSDSGASLGDILGAALKNRGELEHHHHHH,soluble
3,MNGTLDHPDQPDLDAIKMFVGQVPRTWSEKDLRELFEQYGAVYEINVLRDRSQNPPQSKGCCFVTFYTRKAALEAQNALHNMKVLPGMHHPIQMKPADSEKNNAVEDRKLFIGMISKKCTENDIRVMFSSFGQIEECRILRGPDGLSRGCAFVTFTTRAMAQTAIKAMHQAQTMEGCSSPMVVKFADTQKDKEQKRMAQQLQQQMQQISAASVWGNLAGLNTLGPQYLALLQQTASSGNLNTLSSLHPMGGLNAMQLQNLAALAAAASAAQNTPSGTNALTTSSSPLSVLTSSGSSPSSSSSNSVNPIASLGALQTLAGATAGLNVGSLAGMAALNGGLGSSGLSNGTGSTMEALTQAYSGIQQYAAAALPTLYNQNLLTQQSIGAAGSQKEGPEGANLFIYHLPQEFGDQDLLQMFMPFGNVVSAKVFIDKQTNLSKCFGFVSYDNPVSAQAAIQSMNGFQIGMKRLKVQLKRSKNDSKPY,soluble
4,SLALSSPILKEILIEAPSYAPNSFTFDSTNKGFYTSVQDGRVMKYEGPNSGFVDFAYASPYWNKAFCENSTDAEKRPLCGRTYDISYNLQNNQMYIVDCYYHLSVVGSEGGHATQLATSVDGVPFKWLYAVTVDQRTGIVYFTDVSTLYDDRGVQQIMDTSDKTGRLMKYDPSTKETTLLMKELHVPGGAEVSADSSFVLVAEFLSHQIVKYWLEGPKKGTAEVLVKIPNPGNIKRNADGHFWVSSSEELDGNMHGRVDPKGIKFDEFGNILEVIPLPPPFAGEHFEQIQEHDGLLYIGTLFHGSVGILVYDKKGNSFVSSH,soluble
5,MNIFNNVKKAEIHVHLEATITPSICKKFADRNNHEIPDDFFGSKYAYEWDDFYDFLKKYDIVTSVIHTPEDYYELTYEYLKECAANNVIYMEAMISSTHAKNKGMTYHSFIEGVYEASKKAEEDFGIVARYIMNGIRHLGPESVQNTAEEVLKNPHPCLVGFGLAGDELHFPPNLFVKTFDMLKEANFPITVHAGEWDGPENIRNAINLLHPTRLGHGVRSIEDPELVKEIIDKDIILETCPTSNIATKIYEDYESHPVKTLFNQGVKVTVNSDDPPFFMQLFQ,soluble
6,TRIPGVRLMRAEQAYPRSPVFYEPRICILAQGQKIGFLGGETYRYDAERYLVMSVPLPFECETHASAAEPLLGVSVDVDIGTLKELLLQMEEAPGSDDDNELAPSAPMASVPLDAGMADAVMRLLGCLQSPLDSHILGPQLVREIIFRALRSEQGNAL,not soluble
7,MPRSLANAPIMILNGPNLNLLGQRQPEIYGSDTLADVEALCVKAAAAHGGTVDFRQSNHEGELVDWIHEARLNHCGIVINPAAYSHTSVAILDALNTCDGLPVVEVHISNIHQREPFRHHSYVSQRADGVVAGCGVQGYVFGVERIAALAGAGSARA,soluble
8,MNTDEYYMRLAMEEAKKAEQIGEVPIGAVIVQDGRVIARAHNLRETEQRAIAHAEILAIDEACRATGSWRLERATLYVTLEPCAMCAGAIVLSRIERVVFGAFDPKGGCAGTLMNLLQESRFNHQVKVVSGVLADECGSLLSQFFRRLREQKRNVGGSANENSVD,not soluble
9,MIIILRYNKQVFYKYKGDSVMRNRTSVMRKRQMQEVTAKRTKLGKIAMTQKLEATEKQFIVTQGQPCQTQLAEGKFLSYQYNDQIFVHGGRCIELVDSNIVSTAHASLLITILLEGKLSFGYDDLQFDLDASDTPQGVVVNLIHPANFRRSLIENNQINKINILVKPQWLEYRSEESCCSTAFFETHQAFYHLELNQALTELATELTNRDTPHRFQDKLEIESLIYQILFHATQQMPQDFCPQNTNSYRDK,not soluble
10,MSDAATRRLMKELAQLKSEAPEGLLVDNTSTSNDLKQWKIGVVGAEGTLYAGEVFMLQFTFGPQYPFNSPEVMFVGETIPAHPHIYSNGHICLSILSDDWTPALSVQSVCLSILSMLSSSKEKKHPIDDAIYVRTCSKNPSKTRWWFHDDSV,not soluble
11,MGSDKIHHHHHHMTKHLYIDEYGSFVGKTSERLTVSQGGELKAEIPLSRLKSVNILKGGISLSSDIIEACSLRGIKIFFLDFRNVAHTAITSTANHAVANVRKAQFLTIESNHGREIARTLIVGKLKNQRATLQYFYKYLKNTDKQSKKLESAIEKIKETIESLKNIELSNNKHWSQIIMGKEGGMAAIYFDAIGAELLEECDFTTRIGRGAEDIMNSALNYGYAILTSFVWQSIINAGLEAYAGVLHTNRPGKPSLVLDVMEEYRAWVVDRNIIKLRSSLAGKKELDAELKKKIITEINATMNKKHLYNGKNLSLQGVMQRQVYRLVGAFMQQNRYKSYIFKW,not soluble
12,IKDFNYRIGFNLYDSQSEITKFNNETNLLGTYRKGQKIGEIWGYVTDRFYREDDFNADGTLKEGIPIPKGVGKVYPGDILYKNFDDDASTIWSGKGTADDPGDQRIIGNSTPRFHYGINAGLSWKGFDLSVFLRGVGKRDFWRTDQIAWPTGTWGSLFKETLDFWTPEHTDAYFPRVYANNGVNTASNRWKQTKYLANAAYLKLQNITLSYTLPKTWAKQICFDEVKVFFSGENLHTWDHLPEGLESDMLSKGAWEYPFMKKFSLGFNVTF,not soluble
13,MGREFIPLFEDWAATYDQTVQGLDIQYKEAFRGYDHILDAIVRKSGTHVLEFGPGTGNLTAKLLDAGKTVFGIEPSPAMRKLASDKLSGRTEIVDGDFLTFPEPPFQADTIVSSYAFHHLTDEEKRAAIKQYGKYLHLHDKIVFADTVFENAQAYQQAIDKARSQGFYQLANDLETEHYPTLDALKEMFTAEGFAVRFTQQNDFVWIMEAIKRLEHHHHHH,not soluble
14,MNVGLSAEVRYHWFREHLVVVGDWHRLSPSERDRLRHQPMPDEAAQSLRVDLSPWSCGMVFSELLGADLTRFGLCYLAPAEVPASDLTRLGRRLREEFPLLDSQVDSGAEGFELVVHGQPEESPALEVGPFADENALIAALLQRPHSLFERGLLRLFHGRCGGRARWGVWLHHLVADADFASVLLARLAVLNADPTTEAAAPEFGFLQQQWRLERQLRERRTRLEDYWSERGEAFRELASLPWAERASHCEDFRLAATPGGGEAALLTRLACALALALASQGATGKVLALTPVSLRSRRGTAVSGCWLNLVPLLLDAATAEDTFERHRLEAFEHSLLPAEAIAERAGLRYADAQVMINVIDQPFHSAGFIHRPTLKSRLPLTLTLVRRDDGGWDASLASRFGRERTLALAAAMAEALRPC,not soluble
15,MPAVESNMFPLGKQAPPFALTNVIDGNVVRLEDVKSDVATVIMFICNHCPFVKHVQHELVRLANDYMPKGVSFVAINSNDAEQYPEDSPENMKKVAKELGYPFPYLYDETQEVAKAYDAACTPDFYIFDRELKCVYRGQLDDSRPNNGIPVTGESIRAALDALLEGRPVPEKQKPSIGCSIKWKPSA,not soluble
16,MSFLQHYKSGNLVLPSALLFHYKDIFSNADDFLVWQFFYFQNTTKMEDIATSQIATAIGKTVPEVNRSVSNLISQELLDMKTIELDGESEVLFDATLALKKLDDLLTAADETTVSSSKGISNALKDLVEDFERELGRMLSPFELEDLQKTVSDDKTDPDLVRSALREAVFNGKTNWNYIQAILRNWRHEGISTLRQVEERRKEREQANPANVTVSDDFLSAMNLWSDSDAR,not soluble
17,MEGFGMPKLIISGRGGSGKSTLVTLIAHTLKEQKKRVLVVDSDESNIGLSGILGIEPAEKTLMDYLGGKPRVMKKLRSMIRDGETEPELFREKFDLESLSQEFVCWVGSLGLMQIGKIDHAMEGCACPMGAVTRDFLNHVRLEEDQWVLVDTEAGVEHFGRGIVEGADAVVMVVDPSSDAVLLAEKAAKLTHEADKRFGVILNKIDEETEPILTELLTSEGNEIKGVLPYSPAITKMNLKGESLGAYAVKNEVDEIIRELMKCLEHHHHHH,not soluble
18,MIRVYIALGSNLAMPLQQVSAAREALAHLPRSRLVACSPLYRTKPLGPQDQPDFLNAVVALDTSLPPEQLLDHTQAIERNQGRVRKEQRWGPRTLDLDIMLYGDQVIKTDRLTIPHYGLKAREFMLYPLADIAPDLIFPDGESLSECLKRVDKNGLVLW,soluble
19,YWASSQLTQLFLSTDLESLEPTCLSKDTIYQWKVVQTFGDRLRLRQRVLATAIVLLRRYMLKKNEEKGFSLEALVATCIYLSCKVEECPVHIRTICNEANDLWSLKVKLSRSNISEIEFEIISVLDAFLIVHHPYTSLEQAFHDGIINQKQLEFAWSIVNDSYASSLCLMAHPHQLAYAALLISCCNDENTIPKLLDLIKSTDAFKVILCVQRIISIYYFEDIEAAALEHHHHHH,soluble
20,ISVDTLNTKELIEAINLGADMILSVDAGNLDELIPYLKDSETAVVVLPTNYKTNYVPETIEGKIKSLEENIKKLIDAGIEKIVADPILEPINNAGCSFIESVIACREFKKRNKLPLFFGVGNVTELFDADSNGVNALLAAIGAEIGANILFTPEASAKCKFSIKELKIASKMMFLAKKRNSLPKDIGYNLINYKDKRFEEEITFNSYNIPIIKAEEDERQILDEGSFKIEIDRKNKEIVAIYFNKRREPVLIIRGKKPKEIYETAIRLNLIKKLDHASYFGRELAKAEIALRIGKKYNQDFDLF,not soluble
21,MAWTFDEKSPIYLQIAYRVKLKIASKELSMGQQLLPVREFAQEAGVNPNTVQRAFQELEKEGLVYSARTSGRFVTEDEKLIDQKRHEIAQTLMKNFVTEMTAIGFSSPEIKTIITDYIEQTGKDL,not soluble
22,MCMNTQSPPSPHDPHGAAALPFRLWTAEERRASLDTALREWRDGEDVWVYGYGSLIWRPDFDFVERRLATLHGHHRALLWSRVNRGTPECPGLVFGLDRGGSCRGVVYRLAGRQVPDYFPALWDREMSTGAYLPRWLRCATEHGPVNALVFIMNRANPAYIRALPEPELLAIVRRASGRYGPCTEYVVQTAQALRQAGIRDARLEQIARQLEAEVHPLGVLEHHHHHH,soluble
